± gives the uncertainty stated by the source.

The data set is described as follows: amyloid nucleation score (Sup35N fusion, yeast selection) (log enrichment); library NNK2; higher = more nucleation; inactive = no reads after selection. The method in brief:
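Peptides of 20 random codons, each fused to Sup35N, were expressed in psi-negative yeast. Cells were induced with 100 μM copper sulfate for 24 hours and grown 7 days at 30°C on medium lacking adenine and uracil, and plasmid inserts before and after selection were Illumina-sequenced. Nucleation scores are DiMSum log enrichments of output over input reads, centred on the mode score of non-aggregating sequences, and sequences under 100 input reads were excluded.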
Regarding IIWVHSTIPSRVNR, the amyloid nucleation score was -0.183 ± 1. Under IKDKSHLRRIVLVTEYTRRD stands 0.179 ± 0.34; under IKNVWFQFSCGGPGSLRVGS, 0.318 ± 0.32.

For IKSVFMCYWGLDAVGVTAER, the amyloid nucleation score was 8.785 ± 0.047. Next, IKTGSGVARVGYFLC: 0.42 ± 0.47; ILAGSAFCLLCCVKAGWSDE: 6.41 ± 0.086; ILDCLRVRESDHVSGRNRVC: 0.509 ± 0.37. Next, ILHPGSNLPRCRDMCILKGW: -0.226 ± 0.54; ILINCSRWEGRTSCVTLAQQ: 2.27 ± 0.12; ILLFELNAPFVEYSNAFG: 3 ± 0.045. The substance ILLNTSYVYLTDSMEFTVGL came in with an amyloid nucleation score of 2.15 ± 0.14. In the case of ILMMNLNAADRIVNMHMSIL, the amyloid nucleation score entry was “inactive”.

ILRDVVDLQMHNTWRNRGDQ returned an amyloid nucleation score of 3.66 ± 0.063. Next, ILRLIL: 0.531 ± 0.51.

In turn, ILSCWSCRGRINTY returned an amyloid nucleation score of 1.9 ± 0.14. Consider ILTGILSLVAYASSPGAPCG, for which the amyloid nucleation score was determined as 2.45 ± 0.22.

Take ILTTCMNAKKLNLFGYGL: the amyloid nucleation score is -0.291 ± 0.63. The substance ILWKMTFKAPIAKEFPAKWL gave an amyloid nucleation score of 0.065 ± 0.56. On to ILWNLNY, for which the amyloid nucleation score was -0.596 ± 0.4. Under ILYFCRVLITVCMIVDMWGE stands 0.333 ± 0.64; under ILYGLSVQFLGLFCSYCKSS, 6.013 ± 0.058. Next, ILYSSVVSLSCTLAKGNDYT: 1.77 ± 0.4; ILYVCDTRELSGWGGRCYAW: 1.73 ± 0.56.

Regarding IMCCTRLLNSFSAITIVHIA, the amyloid nucleation score is -0.03 ± 0.43. Under IMELSFLSWVLRSKMDFHAE stands 5.34 ± 0.066.

IMGKI had an amyloid nucleation score of 0.163 ± 0.79.

With IMIMTGWS, the amyloid nucleation score is -0.984 ± 0.44. In turn, IMLAVYPIIEGFIVDNMHRI registered an amyloid nucleation score of -1.25 ± 1.1. IMNRSSSG displayed an amyloid nucleation score of 1.03 ± 0.36. Take IMSSISRSNCVSLVV: the amyloid nucleation score entry is “inactive”. As for IMYLVENMCHDKKFYCSVNL, the amyloid nucleation score came out at 4.34 ± 0.087. Substance INDVLFTTRRGHTIS registered an amyloid nucleation score of 2.75 ± 0.094.

Regarding INEFCATLQERRMCYLRMKL, the amyloid nucleation score was 0.921 ± 0.74.

For the substance INGCNQCALP, the amyloid nucleation score was -0.408 ± 1. Take INIHIFGWLIGLRGCM: the amyloid nucleation score was -0.504 ± 1.1. INMCNP showed an amyloid nucleation score of 2.89 ± 0.072. Take INNDTVMVVHRRIHLLYYLM: the amyloid nucleation score result was “inactive”.

For INQHEPFPPGVVLKVHKTL, the amyloid nucleation score was -0.021 ± 0.34. With INSQVDGFSEWPGVVQSKTL, the amyloid nucleation score was -0.157 ± 0.38. Regarding INVVRTNIKYTMTFCIEGTN, the amyloid nucleation score was found to be 7.306 ± 0.032.

With IPAKGRNSHSVSCFF, the amyloid nucleation score is -1.07 ± 0.63. Under IPDHFRTSSAYRLGDRHGG stands 0.103 ± 0.43; under IPIYFSHMNRHWIKCYVLVC, -0.913 ± 0.36; under IPLLCKFCSRGSRAKIYLMD, 1.75 ± 0.095. IPPNGPVYCRYHNRQVCRAG came in with an amyloid nucleation score of 0.203 ± 0.34. Consider IPSWCFVIYSRNGYGFLHCT, for which the amyloid nucleation score result was “inactive”. Next, IPTFSSLCLMLRTEGPRVDI: -1.05 ± 1.1; IQACYGFQSNDVPLISCT: -1.78 ± 0.49. Next, IQHTVMWNALLLALAVSRLR: 0.667 ± 0.21; IQQFVKVFVGDLNLTVDRNM: 7.554 ± 0.06. Next, IQSDLNNLLMHVRVFMCSAV: 4.05 ± 0.065. IRCCTYFAALSILLAPIKAG: the amyloid nucleation score was 0.322 ± 0.27.

In the case of IRCVNIKSLP, the amyloid nucleation score was -1.24 ± 1.1. IRLARISWRSRHYSTHSGVS returned an amyloid nucleation score of -0.076 ± 0.31. For the substance IRLDTKDGCRYN, the amyloid nucleation score entry was “inactive”.

In the case of IRNNPCFQSGDVGY, the amyloid nucleation score was -0.088 ± 1.1. Consider IRPSWLKENLRMVYWYKDYP, for which the amyloid nucleation score worked out at 2.53 ± 0.077. With IRRWFRLNNGRM, the amyloid nucleation score was -0.113 ± 0.79. Consider IRVYRGGLFNSLKKENVGAC, for which the amyloid nucleation score entry was “inactive”.

IRWAFWSRYGSWAKLSLRIV yielded an amyloid nucleation score of -0.995 ± 0.56. With IRWFTEKISDKHLTGCRGLT, the amyloid nucleation score stood at 0.345 ± 0.45.

ISDATLGFGLIHVGMDVWGC: the amyloid nucleation score was determined as 5.76 ± 0.061. In turn, ISDHTTNKDQRFSYS showed an amyloid nucleation score of -0.455 ± 1.1.

On to ISDMS, for which the amyloid nucleation score was -0.416 ± 0.28. Next, ISEDIIWC: 1.24 ± 0.25; ISEIQDLLGSALTH: 2.09 ± 0.079; ISFRFLAFCFFYDKVSLEQK: “inactive”. Take ISFSSTSIHFGD: the amyloid nucleation score is 1.04 ± 0.11.

The substance ISGVSDGQMGFWRNEMGQGS displayed an amyloid nucleation score of 0.28 ± 0.39. Under ISIAGCFNTKILWMFEQ stands 6.32 ± 0.087.

The substance ISKEMGNYNFGLSKYAKR had an amyloid nucleation score of -1.06 ± 0.3. In turn, ISPLHNSLKALRFGPPYSTL had an amyloid nucleation score of -0.377 ± 0.4. Take ISPMWREWTWSHNWCSFPTS: the amyloid nucleation score result was “inactive”. The substance ISRQDRVQWWSYSSTRLA registered an amyloid nucleation score of 4.94 ± 0.077. Under ISSDRIYICL stands 5.996 ± 0.059. With ISSKITRLSPGGLVS, the amyloid nucleation score entry is “inactive”.

Turning to ISTFSRVHLSKVYLRDSTIV, the amyloid nucleation score is -1.92 ± 1.1. Regarding ISTINNGYVFRLYLGSCILD, the amyloid nucleation score turned out to be 6.02 ± 0.081.

As to ISTSPMLACVASVRRSLIRT, the amyloid nucleation score was determined as 0.098 ± 0.74.

ISTYSLCLLSWWH yielded an amyloid nucleation score of 9.469 ± 0.054.

On to ISVKDCLYPQLL, for which the amyloid nucleation score was -0.492 ± 1. Next, ISVQATGASESETIPIQTGY: 2.13 ± 0.11; ITFYGTF: “inactive”; ITHMLLTGIPTQLSRV: -0.621 ± 0.74. Next, ITLFDHRSSKTTLKDFAENT: -0.137 ± 1.1; ITPVRTVRMLSRMFNMLSQL: 4.83 ± 0.056; ITSLRSLRYFHVEFVSRLWL: 0.554 ± 0.81. Under ITSSEVGHWYRVTEKCHIRM stands 1.2 ± 0.3; under ITTFLCSGFCIINAVRNFLS, 2.77 ± 0.12. In the case of ITVYLRTRFLGFGFEYE, the amyloid nucleation score is -0.536 ± 1.

Substance ITYNTS returned an amyloid nucleation score of 0.936 ± 0.44. Next, ITYYHCVSHARNTKNQLTDF: “inactive”. IVCPKSGNAVVYGLMTMNNK: the amyloid nucleation score turned out to be 0.329 ± 0.62. Next, IVCQDFYTAWEYYTYAHR: 3.07 ± 0.048. Under IVDLNLGSEESLFSYLGMSV stands -2.45 ± 0.54; under IVDTRGVPIWREISSIRVDL, -0.669 ± 0.74; under IVEVVFRSIPIAMDSCCCSN, -1.14 ± 0.28. With IVGAIRSKILGTGQTRVIWG, the amyloid nucleation score is 0.477 ± 0.65. Turning to IVGLQVAFFLVFKSVHRDVA, the amyloid nucleation score entry was “inactive”. Turning to IVLAYSKTPREVN, the amyloid nucleation score was -0.086 ± 0.65.

As for IVLSSYLIWLD, the amyloid nucleation score entry was “inactive”. Turning to IVLYSGCVYKD, the amyloid nucleation score was determined as 0.218 ± 0.33. Next, IVMGLGLGASVSRGWNN: 3.58 ± 0.069; IVMYRLRLLQDATN: 0.259 ± 0.65; IVNLPSYYRASRQEDVVKGR: 0.75 ± 0.36.

Substance IVPRIKSAMLLKF had an amyloid nucleation score of -0.301 ± 0.21. IVQRLPVFKFLMYELCLLNG displayed an amyloid nucleation score of -0.894 ± 0.38. Take IVSKDRQNFVRCKDSRDHDV: the amyloid nucleation score was -0.002 ± 0.39.

In turn, IVSLCFNNWGSYRVNGQYLY came in with an amyloid nucleation score of 6.564 ± 0.033. Under IVTLVSDAYSKLTRLMNSVS stands -0.561 ± 0.23; under IVVSKVLLIWFPLLRRGANL, 0.159 ± 0.49; under IVVVLWTFFDG, -1.09 ± 0.55. Next, IWESSIYLNEETNDCLEKL: “inactive”; IWLVQGTAFPGMLSGQGWLL: 0.147 ± 0.76; IWRAQTSWSSSMFTWAVGLR: 1.4 ± 0.33.

IWRSRKLHDMYTVVRGVASD came in with an amyloid nucleation score of 0.182 ± 0.56. Next, IWVGSILTQSPVVDGYFRCR: 0.145 ± 0.35; IWVYFTQHRWRLGKNVGQSC: 0.586 ± 0.51. Substance IYHLPNR gave an amyloid nucleation score of 5.988 ± 0.035.

The substance IYLVSNLMGYKCFLSNHLAR came in with an amyloid nucleation score of 0.151 ± 0.32. Next, IYNNLTCWSDASHGVCFGMD: 4.67 ± 0.058. IYSEDGRAMASMIHVSRKHG displayed an amyloid nucleation score of 0.91 ± 0.43. Next, KAEHVFFVYRGLTEVFASGL: “inactive”.

On to KALAYAWLCISLYKDFGYYN, for which the amyloid nucleation score result was “inactive”. Next, KAPRTIYPVVLQPAS: -0.484 ± 0.33. KAREWQVLVRCKKLTMKYSK had an amyloid nucleation score of 8.227 ± 0.046. As for KCGRWPANAVYWHDTLSCAC, the amyloid nucleation score came to 0.231 ± 0.31. Under KCLDSFDMSDMYSR stands -0.632 ± 1.1.

The substance KCLWWFWLQDRKKRVMCLTG registered an amyloid nucleation score of 0.771 ± 0.43. With KCPSESMRKFF, the amyloid nucleation score was determined as 0.672 ± 0.53.

Regarding KCTFMTDFMIIDEVMYWNRC, the amyloid nucleation score was 1.35 ± 0.46. Next, KCWYRH: 1.39 ± 0.1; KDFFSVVSH: 0.573 ± 0.66; KDLEFGRCIDDDYPLSRSF: 0.141 ± 0.46.

In the case of KDRDNVTGNSVVVRLRRRVL, the amyloid nucleation score is -0.296 ± 0.54.

As for KEEVRSLFIGTFPKIFFGLH, the amyloid nucleation score amounted to 0.251 ± 0.46. Under KEGFPMIIDYEIGFTDLSGG stands -1.43 ± 0.75; under KELDLDFRCFQYYNVVVVPQ, 2.33 ± 0.091.
